Values quoted from earlier work as cited in paper PMC6661118.
Read-outs that look alike come from different tables or passages of the source.

Experiments:
MDM2 (Homo sapiens) [1] = target: MDM2 (Homo sapiens) (UniProt Q00987)
MDM2 (Homo sapiens) [2] = target: MDM2 (Homo sapiens) (UniProt Q00987); remark: listed apart in the source

Sequence of MDM2 (Homo sapiens) (Q00987 whole entry): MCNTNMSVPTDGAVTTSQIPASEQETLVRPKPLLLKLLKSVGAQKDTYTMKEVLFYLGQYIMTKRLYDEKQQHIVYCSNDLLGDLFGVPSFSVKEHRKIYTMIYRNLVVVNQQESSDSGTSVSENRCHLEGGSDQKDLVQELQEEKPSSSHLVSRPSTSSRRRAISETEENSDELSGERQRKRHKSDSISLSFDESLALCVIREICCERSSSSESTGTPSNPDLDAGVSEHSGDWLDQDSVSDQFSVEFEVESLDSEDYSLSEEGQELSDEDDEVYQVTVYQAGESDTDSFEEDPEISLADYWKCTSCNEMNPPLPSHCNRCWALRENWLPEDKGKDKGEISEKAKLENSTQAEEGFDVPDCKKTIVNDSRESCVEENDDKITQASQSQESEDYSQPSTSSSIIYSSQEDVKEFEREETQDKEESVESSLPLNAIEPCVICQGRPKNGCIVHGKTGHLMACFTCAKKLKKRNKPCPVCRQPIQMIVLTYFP

Kd (MDM2 (Homo sapiens) [1]) [nM] | Kd (MDM2 (Homo sapiens) [2]) [nM] | Substance
410 |  | p53 (from UniProt P04637)
 | 55 | p53-SAH-8 (from UniProt P04637)
